Test results reported in patent US8084228B2, “Nogo-B receptor antagonists” (Yale University, priority 2006, dated 2011).
“Also recorded” adds a separate entry of the source. d = 2'-deoxy (DNA)

Tests used:
[1] = tested on: NgBR mRNA; assay: NgBR mRNA by quantitative PCR after siRNA transfection of HUVEC; assay type: cell-based, human; details: 72 hours after transfection, normalized to 18S
Protocol: (§1) NgBR siRNA oligonucleotides (SEQ ID NOS:2-5) with 3′ dTdT overhangs were synthesized by Qiagen. Control siRNA in experiments refers to a nonsilencing (NS) siRNA (NS forward: UUCUCCGAACGUGUCACGU, SEQ ID NO:7; NS reverse: ACGUGACACGUUCGGAGAA, SEQ ID NO:8) designed and synthesized by Qiagen. HUVEC and CHO stable cell lines were transfected with siRNA by using Oligofectamine. Quantification of NgBR mRNA and protein, ligand binding assay, and migration assay were performed at 72 hours after transfection.
Total RNA from cells was isolated by using the RNeasy kit (Qiagen). Reverse transcription was then performed by using 100 ng of RNA and the Superscript First-Strand Synthesis System kit (Invitrogen). Real-time PCR analysis was done with the iCycler iQ detection system using the iQ SYBR green Supermix kit (Bio-Rad). The NgBR mRNA level was normalized by housekeeping gene 18S. The following primers were used for NgBR: forward, 5′-[…]-3′ (SEQ ID NO:9) and reverse, 5′-[…]-3′ (SEQ ID NO:10). The following primers were used for 18S: forward, 5′-[…]-3′ (SEQ ID NO:11) and reverse, 5′-[…]-3′ (SEQ ID NO:12).

[2] = tested on: HUVEC; assay: AP-Am-Nogo-B binding to HUVEC after siRNA transfection; assay type: cell-based, human; details: 72 hours after siRNA transfection
Protocol: (§2) To detect AP-Am-Nogo-B binding, cultures were washed with Hanks' balanced salt solution (HBSS) containing 20 mM HEPES, pH 7.5, and 1 mg/mL BSA (HBH). The plates were then incubated with AP-Am-Nogo-B in DMEM containing 20 mM Hepes, pH 7.5, and 1 mg/mL BSA for 2 hours at 4° C. The bound AP-Am-Nogo-B was detected by using the Blue Substrate kit (Vector Laboratories). The blue staining was examined by using the ODYSSEY Infrared Imaging System (Li-Cor, Lincoln, Nebr.) and confirmed by microscopy. Alternatively, the bound AP-Am-Nogo-B was extracted with Triton X-100, and AP activity was colorimetrically quantified by using p-nitrophenyl phosphate (Sigma) as substrate after heat inactivation of endogenous AP. Non-specific binding was determined by measuring binding in the presence of a 100-fold molar excess of recombinant Am-Nogo-B lacking the AP fusion protein. Specific binding was determined by subtracting the non-specific binding from total binding. For determination of apparent Kd, the binding of AP-Am-Nogo-B was measured in triplicate as described above and the Kd value was quantified by using the Scatchard plot program of GraphPad PRISM (one-site binding, linear regression) using the ratio of bound ligand to free ligand as the y axis and bound ligand (pM) as the x axis.
as §1

[3] = tested on: NgBR protein; assay: NgBR protein level after siRNA transfection of HUVEC; assay type: cell-based, human; details: 72 hours after transfection
Protocol: Single NgBR cDNA clones were isolated by sib selection and sequenced. A NgBR-HA was created in pIRESneo vector (BD, Palo Alto, Calif.), with the HA tag at the carboxy terminus. To access the physical interaction of NgBR with Am-Nogo-B, 50 μg of solubilized extracts of CHO cells expressing control vector (pIRESneo) or NgBR-HA was incubated with 25 μg of purified Am-Nogo-B or buffer for 2 hours at room temperature. The HA-tagged NgBR was immunoisolated with anti-HA immunobeads (Roche, Indianapolis, Ind.) and associated proteins analyzed by Western blotting. For the Western blots, expression of NgBR-HA was detected by using anti-HA (Roche) and NgBR (Imgenex), respectively, and beta-actin (Sigma) or Hsp90 (BD Biosciences-Pharmingen) was used to control for loading.
as §1

[4] = target: T1, full-length NgBR (Homo sapiens, UniProt Q96E22); assay: AP-Am-Nogo-B binding after S2 siRNA in cells expressing the full-length NgBR; assay type: cell-based
T1 construct: expressed in transfected cells
T1 sequence (Q96E22 1-293): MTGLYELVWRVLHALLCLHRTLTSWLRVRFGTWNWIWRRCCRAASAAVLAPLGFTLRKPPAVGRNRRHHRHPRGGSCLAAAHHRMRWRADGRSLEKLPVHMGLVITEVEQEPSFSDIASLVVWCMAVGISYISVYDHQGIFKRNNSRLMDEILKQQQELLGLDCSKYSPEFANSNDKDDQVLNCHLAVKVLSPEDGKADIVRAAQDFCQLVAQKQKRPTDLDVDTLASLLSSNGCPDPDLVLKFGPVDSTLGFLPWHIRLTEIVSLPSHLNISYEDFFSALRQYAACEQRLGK
Protocol: as §2
NgBR siRNA oligonucleotides (SEQ ID NOS:2-5) with 3′ dTdT overhangs were synthesized by Qiagen. […]

[5] = tested on: HUVEC; assay: Tube formation of HUVEC in 3-D collagen cultures (total network length); assay type: cell-based, human; details: Am-Nogo-B 80 nM, HUVEC treated with siRNA
Protocol: HUVEC were resuspended (final concentration of 1×10^6) in a mixture containing rat tail type I collagen (1.5 mg/mL) 1/10 volume of 10×M199 and 1 M Hepes, neutralized with NaOH. Droplets (0.1 mL each) of the cell/collagen mixture were placed in cell culture dishes and allowed to polymerize for 15 minutes at 37° C. Growth medium containing either vehicle or agonist was then added to each well. HUVEC were allowed to form tube-like structures for 1-2 days. To evaluate tube formation in 3-D cultures, cells were photographed using the program OPENLAB (Improvision) and total-network length, defined as an elongation of cell into tube-like structures typically seen in 3-D cultures, was quantified in five fields for each replicate per experiment by using the measurement tools provided with OPENLAB.

[6] = tested on: HUVEC; assay: Am-Nogo-B-mediated chemotaxis of HUVEC after siRNA transfection; assay type: cell-based, human; details: 72 hours after siRNA transfection
Protocol: (§3) Cell migration was examined in modified Boyden chambers using 10 nM each of purified recombinant AP, AP fusion of Nogo-66 (AP-Nogo-66) or Am-Nogo-B. The transwell inserts (Costar transwell inserts; Corning) were coated with a solution of 0.1% gelatin (Sigma) in PBS at 4° C. overnight and then air-dried. VEGF at 50 ng/mL (1.1 nM) or recombinant Am-Nogo-B at various concentrations dissolved in medium 199 containing 0.1% BSA was added in the bottom chamber of the Boyden apparatus. HUVEC (200,000 cells) suspended in a 100 μL aliquot of medium 199 containing 0.1% BSA was added to the upper chamber. After 5 hours incubation, cells on both sides of the membrane were fixed and stained with a Diff-Quik staining kit (Baxter Healthcare, Miami, Fla.). The average number of cells from five randomly chosen high-power (×400) fields on the lower side of the membrane was counted.
as §1

[7] = target: T2, Nogo receptor (Homo sapiens, UniProt Q9BZR6); assay: AP fusion protein binding to COS cells transfected with cDNA encoding the Nogo receptor; details: COS cells (FIG. 6)
T2 construct: expressed in transfected cells; host or cells: COS-7
T2 sequence (Q9BZR6 27-447): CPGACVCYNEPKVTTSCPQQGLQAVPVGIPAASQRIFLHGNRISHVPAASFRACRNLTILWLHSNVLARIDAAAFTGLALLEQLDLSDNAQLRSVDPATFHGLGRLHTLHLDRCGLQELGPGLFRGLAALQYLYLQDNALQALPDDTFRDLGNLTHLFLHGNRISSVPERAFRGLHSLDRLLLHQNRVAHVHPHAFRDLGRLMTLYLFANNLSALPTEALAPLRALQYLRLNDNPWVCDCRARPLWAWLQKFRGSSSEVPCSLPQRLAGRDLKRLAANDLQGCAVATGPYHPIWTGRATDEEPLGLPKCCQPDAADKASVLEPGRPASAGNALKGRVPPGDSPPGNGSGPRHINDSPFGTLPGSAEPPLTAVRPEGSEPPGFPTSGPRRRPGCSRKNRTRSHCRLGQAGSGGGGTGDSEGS
Protocol: as §2
(§4) For expression cloning of Am-Nogo-B receptor, pools of 5,000 arrayed clones from a human heart cDNA library (OriGene Technologies, Rockville, Md.) were transfected into COS-7 cells, and AP-Am-Nogo-B binding was assessed by using AP versus AP-Am-Nogo-B binding and detection of the AP product by near-infrared cell imaging (Li-Cor, Lincoln, Nebr.) or AP activity assays.

[8] = tested on: HUVEC; assay: HUVEC migration in modified Boyden chambers; assay type: cell-based, human; details: 10 nM purified recombinant protein, 5 hours
Protocol: The migratory response of human umbilical vein endothelial cells (HUVEC) in response to a gradient of recombinant, purified alkaline phosphatase (AP) fusion protein expressing Am-Nogo-B or a recombinant purified Am-Nogo-B was examined. HUVEC were cultured in M199 with 20% FBS and endothelial cell growth supplement (ECGS).
as §3

[9] = tested on: CHO cells; assay: AP fusion protein binding to untransfected CHO cells
Protocol: as §2

[10] = target: T3, NgBR (Homo sapiens, UniProt Q96E22); assay: AP fusion protein binding to CHO cells expressing NgBR; parameters: an isolated cDNA encoding NgBR is 2,636 base pairs encoding an open reading frame of 293 amino acids; expressed in transfected cells; details: for surface binding of AP fusion domains to NgBR-expressing cells: CHO cells expressing NgBR (FIGS. 11, 14); for binding to CHO cells stably expressing NgBR: increasing concentrations, 2 hours at 4° C.
T3 sequence (Q96E22 1-293): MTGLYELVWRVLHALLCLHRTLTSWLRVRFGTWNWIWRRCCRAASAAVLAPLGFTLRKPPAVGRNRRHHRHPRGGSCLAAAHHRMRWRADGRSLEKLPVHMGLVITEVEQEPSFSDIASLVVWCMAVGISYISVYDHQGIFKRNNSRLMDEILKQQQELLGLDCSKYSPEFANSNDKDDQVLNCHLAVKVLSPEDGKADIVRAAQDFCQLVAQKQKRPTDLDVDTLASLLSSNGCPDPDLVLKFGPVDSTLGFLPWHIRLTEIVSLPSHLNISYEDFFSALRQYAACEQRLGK
Protocol: as §2
A recombinant AP-Am-Nogo-B fusion protein was used to screen a cDNA expression library from human heart (500,000 independent clones) transfected into COS or CHO cells using Lipofectamine 2000 (Invitrogen). COS-7 cells were cultured in high-glucose DMEM with 10% FBS. CHO cells were cultured in MEM-α with 5% FBS.

[11] = target: T3, NgBR; assay: AP fusion protein binding to COS cells transfected with the isolated NgBR cDNA; parameters: an isolated cDNA encoding NgBR is 2,636 base pairs encoding an open reading frame of 293 amino acids; expressed in transfected cells; host or cells: COS-7 (A4); details: COS cells (FIG. 6)
Protocol: as §2, §4
Single NgBR cDNA clones were isolated by sib selection and sequenced. […] The HA-tagged NgBR was immunoisolated with anti-HA immunobeads (Roche, Indianapolis, Ind.) and associated proteins analyzed by Western blotting. For the Western blots, expression of NgBR-HA was detected by using anti-HA (Roche) and NgBR (Imgenex), respectively, and beta-actin (Sigma) or Hsp90 (BD Biosciences-Pharmingen) was used to control for loading.

[12] = tested on: HUVEC; assay: Binding of AP fusion proteins to the surface of HUVEC; parameters: species or system human; details: HUVEC (FIGS. 12, 15)
Protocol: as §2

Molecule	level of NgBR mRNA [1]	binding of AP-Am-Nogo-B to HUVEC [2]	NgBR protein level [3]	binding of AP-Am-Nogo-B in cells expressing the full-length NgBR [4]	Am-Nogo-B-stimulated increase in tube formation after siRNA [5]	Am-Nogo-B-mediated chemotaxis of HUVEC [6]	binding to COS cells transfected with Nogo receptor cDNA [7]	HUVEC migration [8]	binding to CHO cells [9]	surface binding of AP fusion domains to NgBR-expressing cells [10]	binding to CHO cells stably expressing NgBR [10]	binding to COS cells transfected with the isolated NgBR cDNA [11]	surface binding of AP fusion domains to HUVEC [12]
S1: siRNA targeting the coding region of NgBR mRNA; forward CCAGAAUUUGCAAAUAGUA, reverse UACUAUUUGCAAAUUCUGG (SEQ ID NO: 2, 3) (3' dTdT, sugars by position and backbone not given here)	downregulates	reduces	down-regulates										
S2: siRNA targeting the 3' untranslated region of NgBR; forward GGAAAUACAUAGACCUACA, reverse UGUAGGUCUAUGUAUUUCC (SEQ ID NO: 4, 5) (3' dTdT, sugars by position and backbone not given here)	reduced	reduced	reduced	reduced	attenuated	abolished							
alkaline phosphatase (protein, UniProt P05187 23-506, looked up, purified recombinant alkaline phosphatase, control for AP fusion proteins) Alkaline phosphatase, …: IIPVEEENPDFWNREAAEALGAAKKLQPAQTAAKNLIIFLGDGMGVSTVTAARILKGQKKDKLGPEIPLAMDRFPYVALSKTYNVDKHVPDSGATATAYLCGVKGNFQTIGLSAAARFNQCNTTRGNEVISVMNRAKKAGKSVGVVTTTRVQHASPAGTYAHTVNRNWYSDADVPASARQEGCQDIATQLISNMDIDVILGGGRKYMFRMGTPDPEYPDDYSQGGTRLDGKNLVQEWLAKRQGARYVWNRTELMQASLDPSVTHLMGLFEPGDMKYEIHRDSTLDPSLMEMTEAALRLLSRNPRGFFLFVEGGRIDHGHHESRAYRALTETIMFDDAIERAGQLTSEEDTLSLVTADHSHVFSFGGYPLRGSSIFGLAPGKARDRKAYTVLLYGNGPGYVLKDGARPDVTESESGSPEYRQQSAVPLDEETHAGEDVAVFARGPQAHLVHGVQEQTFIAHVMAFAACLEPYTACDLAPPAGTTD							do not bind	does not promote	minimal binding	did not bind	not	not	did not bind
AP-Am-Nogo-B: purified alkaline phosphatase (AP) fusion protein with residues 1-200 at the amino terminus of Nogo-B (protein, left off: small tags and cut ends; large carriers, purified alkaline phosphatase (AP) fusion protein with residues 1-200 at the amino terminus of Nogo-B) MEDLDQSPLVSSSDSPPRPQPAFKYQFVREPEDEEEEEEEEEEDEDEDLEELEVLERKPAAGLSAAPVPTAPAAGAPLMDFGNDFVPPAPRGPLPAAPPVAPERQPSWDPSPVSSTVPAPSPLSAAAVSPSKLPEDDEPPARPPPPPPASVSPQAEPVWTPPAPAPAAPPSTPAAPKRRGSSGSVVVDLLYWRDIKKTGV							do not bind		minimal binding	did	permits the binding; also recorded: permitted binding		did
